Measured values from US11008402 (dated 2021).
“And” between values parts separate entries of the source, which are not always exact repeats. Equal entries are not always repeated. Where two headings read alike, the source gives them in different places.

Legend:
[1] = molecular target: HER3 (cell surface) (human); experiment: FACS, FaDu
[2] = molecular target: T1, HER3 20-358-Fc (human); experiment: ELISA
T1 chain: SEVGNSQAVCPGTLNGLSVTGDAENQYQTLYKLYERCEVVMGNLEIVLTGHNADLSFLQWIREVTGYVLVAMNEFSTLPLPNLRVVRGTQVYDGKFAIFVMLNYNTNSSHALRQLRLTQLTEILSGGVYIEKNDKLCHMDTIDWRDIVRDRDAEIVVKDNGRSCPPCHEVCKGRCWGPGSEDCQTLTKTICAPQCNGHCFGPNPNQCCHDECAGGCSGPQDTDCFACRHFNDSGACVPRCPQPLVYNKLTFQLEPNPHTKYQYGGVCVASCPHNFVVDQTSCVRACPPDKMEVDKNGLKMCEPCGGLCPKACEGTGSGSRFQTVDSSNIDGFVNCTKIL

[3] = molecular target: HER3 (cell surface) (human); experiment: FACS, SKBR-3
[4] = molecular target: HER3 20-531-Fc (human); experiment: ELISA
[5] = molecular target: HER3 20-550-Fc (human); experiment: ELISA
[6] = molecular target: HER3-Fc ECD (human); experiment: other, QCM Attana bivalent
[7] = molecular target: T2, HER3 359-587-Fc (human); experiment: ELISA
T2 chain: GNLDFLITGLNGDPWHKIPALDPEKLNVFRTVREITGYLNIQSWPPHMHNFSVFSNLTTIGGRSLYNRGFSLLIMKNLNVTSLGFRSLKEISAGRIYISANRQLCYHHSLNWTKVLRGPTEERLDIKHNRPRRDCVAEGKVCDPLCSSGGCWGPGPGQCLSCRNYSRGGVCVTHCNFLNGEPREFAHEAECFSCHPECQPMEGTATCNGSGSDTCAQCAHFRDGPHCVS

[8] = molecular target: HER3-His ECD (human); experiment: ELISA
[9] = molecular target: HER3-His ECD (human); experiment: other, QCM Attana 25C
[10] = molecular target: HER3-Fc ECD (human); experiment: ELISA
[11] = molecular target: HER3 (cell surface) (human); experiment: FACS, MCF-7
[12] = molecular target: T3, HER3 359-643-Fc (human); experiment: ELISA
T3 chain: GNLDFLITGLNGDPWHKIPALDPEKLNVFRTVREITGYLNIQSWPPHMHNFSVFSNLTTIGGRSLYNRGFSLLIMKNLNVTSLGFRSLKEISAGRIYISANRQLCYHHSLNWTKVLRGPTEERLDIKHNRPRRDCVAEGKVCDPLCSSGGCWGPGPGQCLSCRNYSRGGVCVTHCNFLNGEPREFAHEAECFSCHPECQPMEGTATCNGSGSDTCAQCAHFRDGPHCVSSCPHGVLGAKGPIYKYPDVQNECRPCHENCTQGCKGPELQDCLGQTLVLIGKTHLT

[13] = molecular target: HER3-His ECD (human); experiment: ELISA; remark: listed apart in the source
[14] = molecular target: T4, HER3 395-643-Fc (human); experiment: ELISA
T4 chain: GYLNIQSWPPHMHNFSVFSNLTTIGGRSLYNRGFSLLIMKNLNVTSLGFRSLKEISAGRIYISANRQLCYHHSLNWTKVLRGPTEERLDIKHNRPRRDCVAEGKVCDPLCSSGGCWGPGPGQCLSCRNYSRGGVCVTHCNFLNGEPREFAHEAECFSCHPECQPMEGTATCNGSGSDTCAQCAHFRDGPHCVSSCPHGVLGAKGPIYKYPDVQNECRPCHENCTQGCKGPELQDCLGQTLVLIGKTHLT

[15] = molecular target: HER3 (cell surface) (human); experiment: FACS, FaDu; remark: listed apart in the source
[16] = molecular target: T5, HER3 DIV-Fc (human); experiment: ELISA
T5 chain: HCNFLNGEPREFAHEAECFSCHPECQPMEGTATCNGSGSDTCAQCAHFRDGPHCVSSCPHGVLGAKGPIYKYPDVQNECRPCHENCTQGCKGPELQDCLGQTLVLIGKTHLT

[17] = molecular target: T6, HER3 329-550-Fc (human); experiment: ELISA
T6 chain: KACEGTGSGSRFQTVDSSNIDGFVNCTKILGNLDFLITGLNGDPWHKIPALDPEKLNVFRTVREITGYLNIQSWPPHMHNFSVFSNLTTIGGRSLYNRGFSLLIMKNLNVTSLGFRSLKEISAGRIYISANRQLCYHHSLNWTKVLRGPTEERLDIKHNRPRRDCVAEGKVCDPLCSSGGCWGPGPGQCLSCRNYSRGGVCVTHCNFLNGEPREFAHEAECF

[18] = molecular target: HER3-His ECD (human); experiment: ELISA; remark: listed apart in the source
[19] = molecular target: T7, HER3 458-643-Fc (human); experiment: ELISA
T7 chain: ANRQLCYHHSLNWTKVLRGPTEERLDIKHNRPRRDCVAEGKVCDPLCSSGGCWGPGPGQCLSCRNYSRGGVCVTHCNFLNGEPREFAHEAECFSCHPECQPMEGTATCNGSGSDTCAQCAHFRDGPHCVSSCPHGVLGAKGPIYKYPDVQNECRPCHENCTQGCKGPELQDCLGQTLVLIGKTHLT

[20] = molecular target: HER3 (cell surface) (human); experiment: FACS, FaDu; remark: listed apart in the source

B1: IgG 3-43 (antibody, V domains shown)
VH: QVQLQQSGPGLVKPSQTLSLTCAISGDSVSSNRAAWNWIRQSPSRGLEWLGRTYYRSKWYNDYAQSLKSRITINPDTPKNQFSLQLNSVTPEDTAVYYCARDGQLGLDALDIWGQGTMVTVSS
VL: QAGLTQPPAVSVAPGQTASITCGRDNIGSRSVHWYQQKPGQAPVLVVYDDSDRPAGIPERFSGSNYENTATLTISRVEAGDEADYYCQVWGITSDHVVFGGGTKLTVLG
Q: How did the EC50 [1] turn out when B1 was run?
A: 0.003 nM

Q: Does B1 bind [2]?
A: no binding

Q: And the EC50 [3]?
A: 0.022 nM

Q: Does B1 bind [4]?
A: no binding

Q: Does B1 bind [5]?
A: no binding

Q: And the Kd [6]?
A: 0.22 nM

Q: Does B1 bind [7]?
A: no binding

Q: And the EC50 [8]?
A: 0.23 nM

Q: What about the Kd [9] of the same binder?
A: 11.2 nM

Q: And the EC50 [10]?
A: 0.27 nM and 0.4 nM

Q: What about the EC50 [11] of the same binder?
A: 0.021 nM

Q: Does B1 bind [12]?
A: no binding

Q: What about the EC50 [13] of the same binder?
A: 0.33 nM

Q: Does B1 bind [14]?
A: no binding

Q: And the EC50 [15]?
A: 0.3 nM

Q: Does B1 bind [16]?
A: no binding

Q: Does B1 bind [17]?
A: no binding

Q: And the EC50 [18]?
A: 0.33 nM and 0.54 nM

Q: Does B1 bind [19]?
A: no binding

Q: What about the EC50 [20] of the same binder?
A: 0.006 nM
